In US20150132821, “Systems and Methods for Improving Nuclease Specificity and Activity” (Georgia Tech Research Corporation, published 2015):

How the values were obtained:
[1] = test system: S-25 NK-TALEN (synthetic); test: cell_activity; details: monomer SSA assay
[2] = test system: S-23 NK-TALEN (synthetic); test: cell_activity; details: monomer SSA assay
[3] = test system: S-04 NK-TALEN (synthetic); test: cell_activity; details: monomer SSA assay
[4] = test system: S-32 NK-TALEN (synthetic); test: cell_activity; details: monomer SSA assay
[5] = test system: S-06 NK-TALEN (synthetic); test: cell_activity; details: monomer SSA assay
[6] = test system: S-08 NK-TALEN (synthetic); test: cell_activity; details: monomer SSA assay
[7] = test system: S-27 NK-TALEN (synthetic); test: cell_activity; details: monomer SSA assay
[8] = test system: S-13 NK-TALEN (synthetic); test: cell_activity; details: monomer SSA assay
[9] = test system: S-42 NK-TALEN (synthetic); test: cell_activity; details: monomer SSA assay
[10] = test system: S-26 NK-TALEN (synthetic); test: cell_activity; details: monomer SSA assay
[11] = test system: S-37 NK-TALEN (synthetic); test: cell_activity; details: monomer SSA assay
[12] = test system: S-15 NK-TALEN (synthetic); test: cell_activity; details: monomer SSA assay
[13] = test system: S-17 NK-TALEN (synthetic); test: cell_activity; details: monomer SSA assay
[14] = test system: S-20 NK-TALEN (synthetic); test: cell_activity; details: monomer SSA assay
[15] = test system: S-19 NK-TALEN (synthetic); test: cell_activity; details: monomer SSA assay
[16] = test system: S-22 NK-TALEN (synthetic); test: cell_activity; details: monomer SSA assay
[17] = test system: S-03 NK-TALEN (synthetic); test: cell_activity; details: monomer SSA assay
[18] = test system: S-18 NK-TALEN (synthetic); test: cell_activity; details: monomer SSA assay
[19] = test system: S-34 NK-TALEN (synthetic); test: cell_activity; details: monomer SSA assay
[20] = test system: S-12 NK-TALEN (synthetic); test: cell_activity; details: monomer SSA assay
[21] = test system: S-40 NK-TALEN (synthetic); test: cell_activity; details: monomer SSA assay
[22] = test system: S-35 NK-TALEN (synthetic); test: cell_activity; details: monomer SSA assay
[23] = test system: S-09 NK-TALEN (synthetic); test: cell_activity; details: monomer SSA assay
[24] = test system: S-29 NK-TALEN (synthetic); test: cell_activity; details: monomer SSA assay
[25] = test system: S-30 NK-TALEN (synthetic); test: cell_activity; details: monomer SSA assay
[26] = test system: S-21 NK-TALEN (synthetic); test: cell_activity; details: monomer SSA assay
[27] = test system: S-38 NK-TALEN (synthetic); test: cell_activity; details: monomer SSA assay
[28] = test system: S-36 NK-TALEN (synthetic); test: cell_activity; details: monomer SSA assay
[29] = test system: S-43 NK-TALEN (synthetic); test: cell_activity; details: monomer SSA assay
[30] = test system: S-39 NK-TALEN (synthetic); test: cell_activity; details: monomer SSA assay
[31] = test system: S-24 NK-TALEN (synthetic); test: cell_activity; details: monomer SSA assay
[32] = test system: S-44 NK-TALEN (synthetic); test: cell_activity; details: monomer SSA assay
[33] = test system: S-31 NK-TALEN (synthetic); test: cell_activity; details: monomer SSA assay
[34] = test system: S-33 NK-TALEN (synthetic); test: cell_activity; details: monomer SSA assay
[35] = test system: S-11 NK-TALEN (synthetic); test: cell_activity; details: monomer SSA assay
[36] = test system: S-16 NK-TALEN (synthetic); test: cell_activity; details: monomer SSA assay
[37] = test system: S-41 NK-TALEN (synthetic); test: cell_activity; details: monomer SSA assay
[38] = test system: S-28 NK-TALEN (synthetic); test: cell_activity; details: monomer SSA assay
[39] = test system: S-10 NK-TALEN (synthetic); test: cell_activity; details: monomer SSA assay
S-05 (S5) NK-TALEN = target: T1, S-05 (S5) NK-TALEN (synthetic); test: cell_activity; monomer SSA assay; details: tags: 3xFLAG, NLS, FokI
T1 chain: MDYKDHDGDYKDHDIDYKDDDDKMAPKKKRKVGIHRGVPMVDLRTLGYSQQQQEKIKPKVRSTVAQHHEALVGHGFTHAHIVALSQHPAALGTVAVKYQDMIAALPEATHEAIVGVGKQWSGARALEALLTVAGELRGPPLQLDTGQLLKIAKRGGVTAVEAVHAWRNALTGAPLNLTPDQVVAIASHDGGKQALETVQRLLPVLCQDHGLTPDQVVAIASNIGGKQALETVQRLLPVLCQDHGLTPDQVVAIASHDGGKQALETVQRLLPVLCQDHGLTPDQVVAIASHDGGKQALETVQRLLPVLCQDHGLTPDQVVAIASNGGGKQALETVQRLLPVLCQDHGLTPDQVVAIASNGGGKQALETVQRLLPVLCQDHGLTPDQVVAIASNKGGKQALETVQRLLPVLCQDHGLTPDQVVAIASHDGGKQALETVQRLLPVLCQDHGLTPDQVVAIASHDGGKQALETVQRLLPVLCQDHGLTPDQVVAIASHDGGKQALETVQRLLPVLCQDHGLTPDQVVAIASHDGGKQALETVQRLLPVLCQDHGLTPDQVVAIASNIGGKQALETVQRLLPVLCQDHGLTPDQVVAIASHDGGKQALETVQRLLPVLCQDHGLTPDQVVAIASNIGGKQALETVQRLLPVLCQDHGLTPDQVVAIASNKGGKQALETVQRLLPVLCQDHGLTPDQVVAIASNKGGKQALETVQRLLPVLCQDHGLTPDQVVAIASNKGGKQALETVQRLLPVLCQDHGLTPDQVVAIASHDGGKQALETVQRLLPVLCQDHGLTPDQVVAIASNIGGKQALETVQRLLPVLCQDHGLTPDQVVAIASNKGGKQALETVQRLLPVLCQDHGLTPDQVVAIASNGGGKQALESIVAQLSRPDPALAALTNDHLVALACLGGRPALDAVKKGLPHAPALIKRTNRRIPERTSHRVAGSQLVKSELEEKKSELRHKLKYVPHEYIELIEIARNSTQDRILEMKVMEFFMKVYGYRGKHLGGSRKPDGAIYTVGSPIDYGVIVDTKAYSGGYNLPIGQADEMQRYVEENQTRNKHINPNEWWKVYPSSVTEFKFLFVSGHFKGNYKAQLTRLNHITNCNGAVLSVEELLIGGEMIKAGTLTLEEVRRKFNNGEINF
Experimental: HEK293T cells (ATCC) were cultured in Dulbecco's Modified Eagle Medium (Sigma) supplemented with 10% FBS and 2 mM L-Glutamine. Cells were seeded 80,000 per well of a 24-well plate. After 4 h, cells were transfected with 200 ng of the TALEN plasmid (or 100 ng of each TALEN for hetero-dimeric pairs) and 10 ng of the corresponding SSA reporter plasmid using calcium phosphate transfection. Three control transfections were included: 1) 200 ng of an empty TALEN backbone and 10 ng of an SSA reporter plasmid, 2) 200 ng of an empty TALEN backbone and 10 ng of a pEGFP plasmid, and 3) 100 ng of each GFP-ZFN and 10 ng of an SSA reporter plasmid. Cells were harvested 48 h after transfection. The percentages of pEGFP-transfected samples expressing GFP were determined using an Accuri C6 flow cytometer, as an indication of transfection efficiency. Genomic DNA was isolated using QuickExtract DNA extraction solution (Epicentre) as described20. Sample were PCR amplified for 35 cycles (95° C., 30 s; 60° C., 30 s; 72° C., 60 s) in a 50 μl reaction that contains 2 μl of the extracted DNA, 2.5 μl of each 10 μM target region amplification primer (SSA-Cell-F4, 5′-[…] (SEQ ID NO: 183); SSA-Cell-R4, 5′-[…] (SEQ ID NO: 184)), and 25 μl of GoTaq green master mix (Promega). PCR reactions were then separated on 2% agarose gels and the percentages of SSA-repaired products were quantified using ImageJ.

## CTCCACAGGAGTCAGGTGCACCAT (double strand) [S-25 half-site]
[1]
  activity: 11.1 % SSA

## AGACCACCAGCAGCCT (double strand) [S-23 half-site]
[2]
  activity: 11.6 % SSA

## CAAACAGACACCATGGTGCACCTGA (double strand) [S-04 half-site]
[3]
  activity: 2.5 % SSA

## ATCAGAAACCCAAGAGTCTT (double strand) [S-32 half-site]
[4]
  activity: 10.5 % SSA

## CACCTTGCCCCACAGGGCAGTAA (double strand) [S-06 half-site]
[5]
  activity: 5.3 % SSA

## CACCTTGCCCCACAGGGCAGTA (double strand) [S-08 half-site]
[6]
  activity: 1.9 % SSA

## GCCTATCAGAAACCCAAGAGTCTTCTCTGT (double strand) [S-27 half-site]
[7]
  activity: 3.5 % SSA

## CTTGGGTTTCTGATAGGCACTGACTCTCT (double strand) [S-13 half-site]
[8]
  activity: 13 % SSA

## GCTTACATTTGCTTCTGACACAACT (double strand) [S-42 half-site]
[9]
  activity: 4.3 % SSA

## ATCAGAAACCCAAGAGTCTTCTCTGT (double strand) [S-26 half-site]
[10]
  activity: 11.7 % SSA

## GCCTATCAGAAACCCAAGAGT (double strand) [S-37 half-site]
[11]
  activity: 4.8 % SSA

## CCTGTGGAGAAGTCTGCCGT (double strand) [S-15 half-site]
[12]
  activity: 3 % SSA

## CTGATAGGCACTGACTCTCT (double strand) [S-17 half-site]
[13]
  activity: 29.2 % SSA

## CTGATAGGCACTGACTCTCTCTGCCTAT (double strand) [S-20 half-site]
[14]
  activity: 16.6 % SSA

## CTGATAGGCACTGACTCTCTCTGCCT (double strand) [S-19 half-site]
[15]
  activity: 17.2 % SSA

## CCACGTTCACCTTGCCCCACAGGGCAGT (double strand) [S-22 half-site]
[16]
  activity: 4.5 % SSA

## CAAACAGACACCATGGTGCACCT (double strand) [S-03 half-site]
[17]
  activity: 4.9 % SSA

## CTGATAGGCACTGACTCTCTCT (double strand) [S-18 half-site]
[18]
  activity: 26.2 % SSA

## ATCAGAAACCCAAGAGTCT (double strand) [S-34 half-site]
[19]
  activity: 14.8 % SSA

## TGCCCCACAGGGCAGT (double strand) [S-12 half-site]
[20]
  activity: 11 % SSA

## ATTGCTTACATTTGCTTCTGACACAACT (double strand) [S-40 half-site]
[21]
  activity: 2.5 % SSA

## GCCTATCAGAAACCCAAGAGTCT (double strand) [S-35 half-site]
[22]
  activity: 8.1 % SSA

## GCCCCACAGGGCAGTAACGGCAGA (double strand) [S-09 half-site]
[23]
  activity: 6.2 % SSA

## GCCTATCAGAAACCCAAGAGTCTTCTCT (double strand) [S-29 half-site]
[24]
  activity: 5.3 % SSA

## ATCAGAAACCCAAGAGTCTTCT (double strand) [S-30 half-site]
[25]
  activity: 17.9 % SSA

## CTGATAGGCACTGACTCTCTCTGCCTATT (double strand) [S-21 half-site]
[26]
  activity: 21.8 % SSA

## CTATTGCTTACATTTGCTTCTGACACAACT (double strand) [S-38 half-site]
[27]
  activity: 3.7 % SSA

## ATCAGAAACCCAAGAGT (double strand) [S-36 half-site]
[28]
  activity: 7.3 % SSA

## GCTTACATTTGCTTCTGACACAACTGT (double strand) [S-43 half-site]
[29]
  activity: 4.1 % SSA

## GGGTTTCTGATAGGCACTGACTCTCTCT (double strand) [S-39 half-site]
[30]
  activity: 5 % SSA

## CCAAGGGTAGACCACCAGCAGCCT (double strand) [S-24 half-site]
[31]
  activity: 1.3 % SSA

## GCTTACATTTGCTTCTGACACAACTGTGT (double strand) [S-44 half-site]
[32]
  activity: 3.2 % SSA

## GCCTATCAGAAACCCAAGAGTCTTCT (double strand) [S-31 half-site]
[33]
  activity: 9.7 % SSA

## GCCTATCAGAAACCCAAGAGTCTT (double strand) [S-33 half-site]
[34]
  activity: 4.9 % SSA

## ACAAGACAGGTTTAAGGAGACCAAT (double strand) [S-11 half-site]
[35]
  activity: 1.5 % SSA

## CTGATAGGCACTGACTCT (double strand) [S-16 half-site]
[36]
  activity: 30.9 % SSA

## ATTGCTTACATTTGCTTCTGACACAACTGT (double strand) [S-41 half-site]
[37]
  activity: 3.1 % SSA

## ATCAGAAACCCAAGAGTCTTCTCT (double strand) [S-28 half-site]
[38]
  activity: 15.3 % SSA

## GCTTACATTTGCTTCTGACACAACTGTGTT (double strand) [S-10 half-site]
[39]
  activity: 8.4 % SSA

B1: S-05 half-site (dsDNA)
DNA 1: CACCTTGCCCCACAGGGCAGT
DNA 2: ACTGCCCTGTGGGGCAAGGTG
S-05 (S5) NK-TALEN
  activity: 6.1 % SSA
